Twelve molecules from US20250147051A1 (GTINVENT, published 2025) can be followed below.

In assay [1] the target is T1, mouse tau (Isoform Tau-A) (mouse, UniProt P10637 2-733).
T1 construct: endogenous protein in mouse brain homogenate or plasma; isoform in the samples not determined; also called endogenous mouse tau
Put plainly: Western blot of brain homogenates.

The target in assay [2] is T2, human tau 296-390 (Line 1 transgene fragment) (human, UniProt P10636 613-707).
T2 construct: also called L1 fragment; 10-kDa tau fragment
Put plainly: Western blot of brain homogenates.

The target in assay [3] is T3, full length human tau protein 2N4R (hT40) (human, UniProt P10636 1-758).
T3 construct: recombinant protein; also called T441
Put plainly: sandwich ELISA, S1D12 mAb capture, chemiluminescence detection. How it is done: (§1) Full length tau (hT40), at 1 μg/ml starting concentration was added to designated wells and double diluted across rest of the plates and left to incubate at R/T for 1 h. A series of detection scAbs with varying epitope recognition properties were added at 10 μg/ml to designated wells (FIG. 22). For colourimetric detection HRP conjugated anti-HuCk secondary antibody was used and the resulting immunoreaction was developed and absorbance at 450 nm measured as described previously. Cut-off point for a positive binding event was an absorbance value of 0.3 following background subtraction. In order to enhance the assay sensitivity, a chemiluminescent detection method was adopted where 50 μL SuperSignal ELISA Femto Substrate (Thermo Scientific) was added to each well following incubation with anti-HuCK HRP antibody and subsequent washing. The luminescence was read using Clariostar Plus microplate reader. A further modification to this protocol was done where various detection scAbs were directly conjugated with HRP and detected using chemiluminescent protocol as before.

In assay [4] the target is T3, full length human tau protein 2N4R …. Put plainly: sandwich ELISA, S1D12 mAb capture, colourimetric detection. How it is done:
as §1

Assay [5] has the same target. Put plainly: direct ELISA, coated hT40.
The target of assay [6] is T4, DGAE + LMT Agg.
T4 construct: also called dGAE agitated in the presence of LMTM (Total, Supernatant, Pellet)
Put plainly: sandwich ELISA, 423 mAb capture, dGAE species titrated, scAb detection at 10 ug/ml [D00041 Figure 34O]. How it is done:
(§2) For preparing the aggregates, 10 μl 10 mM DTT was added to 1000 μl 100 μM dGAE and agitated with/without LMTM (1:5 ratio) at 700 rpm for 24 h at 37° C. Following overnight agitation, one third of each sample was kept aside as ‘total’ and the rest was spun down at 16000×g for 30 min and separated into ‘supernatant’ and ‘pellet’. The pellet was then resuspended in half the original volume for further experiments. […] Doubling dilutions of dGAE aggregate ‘total’, ‘supernatant’ and ‘pellet’ samples at 10 μg/ml starting concentration were added to designated wells in doubling dilutions in 1×PBS. dGAE monomer (non-aggregated) was included as assay control. All double dilutions were done in final volumes of 100 μl. This was left to incubate on lab bench for 1 h followed by the addition of test scAbs at 10 μg/ml.

The target of assay [7] is T4, DGAE + LMT Agg. Put plainly: sandwich ELISA, 423 mAb capture, dGAE species titrated, scAb detection at 10 ug/ml [D00039 Figure 34F]. How it is done: as §2
The target in assay [8] is T3, full length human tau protein 2N4R …. Put plainly: direct ELISA, coated hT40. This is another data set of the same source.

Like-named read-outs stand apart in the source and are kept apart here.

T3 sequence (P10636 other isoform, or with tags, fused parts or gaps limits assumed): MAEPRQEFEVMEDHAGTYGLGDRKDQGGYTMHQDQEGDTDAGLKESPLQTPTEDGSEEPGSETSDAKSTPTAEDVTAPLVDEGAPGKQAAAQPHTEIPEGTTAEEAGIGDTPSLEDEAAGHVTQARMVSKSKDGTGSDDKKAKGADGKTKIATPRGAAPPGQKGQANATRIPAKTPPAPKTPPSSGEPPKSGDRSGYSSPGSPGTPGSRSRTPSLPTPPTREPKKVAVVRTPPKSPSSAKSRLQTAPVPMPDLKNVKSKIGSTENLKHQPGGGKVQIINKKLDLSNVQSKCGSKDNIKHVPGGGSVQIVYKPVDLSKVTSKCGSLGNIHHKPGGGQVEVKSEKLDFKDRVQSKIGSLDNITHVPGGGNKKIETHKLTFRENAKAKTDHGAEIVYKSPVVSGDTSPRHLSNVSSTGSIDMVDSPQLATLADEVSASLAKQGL
T4 sequence (fragment, as listed by the source limits assumed): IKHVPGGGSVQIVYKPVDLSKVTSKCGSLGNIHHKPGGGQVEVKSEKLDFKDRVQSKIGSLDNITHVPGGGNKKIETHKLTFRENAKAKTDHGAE
T2 sequence (P10636 613-707): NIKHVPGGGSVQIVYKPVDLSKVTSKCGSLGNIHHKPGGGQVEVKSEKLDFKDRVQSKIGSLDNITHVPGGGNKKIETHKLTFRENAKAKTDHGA
T1 sequence (P10637 other isoform, or with tags, fused parts or gaps limits assumed): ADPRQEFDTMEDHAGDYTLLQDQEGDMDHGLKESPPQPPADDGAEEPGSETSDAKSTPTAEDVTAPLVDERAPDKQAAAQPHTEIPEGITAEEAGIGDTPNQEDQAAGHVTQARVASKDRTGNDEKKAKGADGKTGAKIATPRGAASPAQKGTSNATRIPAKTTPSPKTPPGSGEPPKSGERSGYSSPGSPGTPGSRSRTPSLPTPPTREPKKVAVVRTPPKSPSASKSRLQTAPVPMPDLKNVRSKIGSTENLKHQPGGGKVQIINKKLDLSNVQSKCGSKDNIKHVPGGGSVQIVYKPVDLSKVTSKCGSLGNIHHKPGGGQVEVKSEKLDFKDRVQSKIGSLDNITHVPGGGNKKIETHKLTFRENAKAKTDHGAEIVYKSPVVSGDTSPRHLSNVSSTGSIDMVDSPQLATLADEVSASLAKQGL

B1: CB7 mAb (antibody, mouse IgG2a, V domains shown)
VH: QVQLQESGPSLVKPSQTLSLTCTVSGFSLTNYRVGWVRQAPGKALEWVSNIRSGGTTWYNPALKSRLSITADTSKSQVSLSLSSVTTEDTAVYYCARDSSGDLYAYDYWGPGLLVTVSS
VL: QAVLTQPSSVSRSLGQSVSMTCSGSSSNVGYGNYMAWFQQVPGSAPKLLIYGATSRASGVPDRFSGSRSGNTATLTISSLQAEDEADYYCASYDSTSGGVFGSGTRLTVLG
notes: also called CB7 antibody
As to B1, the binding result in assay [1] and in assay [2] was “no binding (tested: 20 µg brain protein)” in each case.

B2: 412E10 scAb (scFv)
scFv: QVQLQESGPSLVKPSQTLSLTCTVSGFSVISDSVAWVRQAPGKVPEWLGASGSSGNKYYNPALKSRLSITRDTSKSQVSLSLSSVTTEDTAVYYCARGIIAGVDVWGRGLLVTVSSEGKSSGASGESKVDDQAVLTQPSSVSGSLGQRVSITCSGSSSNVGYGNYVGWYQQVPGSAPKLLIYGTAIRASGVPDRFSGSRSGDTATLTITSLQAEDEADYYCASYQSNYAFFGSGTRLTVLG
notes: scAb (scFv-HuCk-His)
As for B2, the LoD in assay [3] amounted to 0.37 ng/mL; in assay [4], 20 ng/mL.

B3: CB7 scAb (scFv)
scFv: QVQLQESGPSLVKPSQTLSLTCTVSGFSLTNYRVGWVRQAPGKALEWVSNIRSGGTTWYNPALKSRLSITADTSKSQVSLSLSSVTTEDTAVYYCARDSSGDLYAYDYWGPGLLVTVSSEGKSSGASGESKVDDQAVLTQPSSVSRSLGQSVSMTCSGSSSNVGYGNYMAWFQQVPGSAPKLLIYGATSRASGVPDRFSGSRSGNTATLTISSLQAEDEADYYCASYDSTSGGVFGSGTRLTVLG
notes: scAb (scFv-HuCk-His)
In the case of B3, the results for the LoD in assay [3] and in assay [4] were 3.33 ng/mL and 15 ng/mL, respectively.

B4: CB3 scAb (scFv)
scFv: QVQLQESGPSLVKPSQTLSLTCTVSGFSLSSVAVNWVRQAPGKVPEWLGGIISNGGTGYNPALKSRLSITRDTSKSQVSLALTHVTTEDTAVYYCGRGVEWEGSMDYLGPGLLVTVSSEGKSSGSGSETKVDDQSVLTQPSSVSGFLGQRVTITCSGSSSNVGAGSYVGWYQQVPGSGLRILIYGATKRASGLPDRFSGSRSGNTATLTISSLQAEDEADYYCVSYQTDFTLVFGSGTRLTVLG
notes: scAb (scFv-HuCk-His)
Consider B4, for which the “EC50 (read off the curve)” value in assay [5] is ~0.1 µg/mL.

B5: CE3 scAb (scFv)
scFv: QVRLQESGPSLVKPSQTLSVTCTVSGFSLISNAVGWVRQAPGKVPESLAGCSSDGKCYYNSALKSRLDITRDTSKNQISLSLSSVTTDDAAVYYCTRGYYPVYGYDYLGTIDYWGPGLLVTVSSEGKSSGASGESKVDDQAVLTQPSSVSGSLGQRVSITCSGSSSNVGRNDVAWFQQLPGSGLRTIIYGTTSRPSGIPDRFSGSKSGVTATLTIDSLQAEDEADYFCASGDSSAINDIFGSGTRLTVLG
notes: scAb (scFv-HuCk-His)
Turning to B5, in assay [6], the binding result is given as “binds”.

B6: CA4 scAb (scFv)
scFv: QVQLQESGPSLVKPSQTLSLTCTVSGFSLTSYSVYWVRQAPGQALEWISIMYASGRVDYNPALKSRLSITRDTSKSQFSLSLSSVTTEDTAVYYCTRGIENWGPGLLVTVSSEGKSSGASGESKVDDDIQVTQSPSSLSASLTERVSITCRTSQSVNNYLSWYQQKPGQAPKLLIYYATRLYTDVPSRFSGSGSGTDYTLTITSLEADDTATYYCLQYDSTPLAFGGGTNVEIK
notes: scAb (scFv-HuCk-His)
As to B6, the LoD is 0.37 ng/mL in assay [3] and 6 ng/mL in assay [4].

B7: CC7 mAb (antibody, mouse IgG2a, V domains shown)
VH: QVQLQESGPSLVKPSQTLSLTCTVSGFSLTSNAVIWVRQAPGKAPEWVALIDVDGDAAYDPALKSRLSITRDTSKSQVSLSLRSVTTEDTAVYYCARDYGSWGYVSDIDYWGPGLLVTVSS
VL: RVVRTQPSSVSGSLGQRVSITCSGSYITGSSVGWFQQVPGSGLKTVIYDNNDRPSGVPDRFSGSKSGDTATLTISSLQAEDEADYYCASYDTSNIGLFGSGTRLTVLG
notes: also called CC7 antibody
For the molecule B7, the binding result in assay [1] and in assay [2] was “no binding (tested: 20 µg brain protein)” throughout.

B8: CC7 scAb (scFv)
scFv: QVQLQESGPSLVKPSQTLSLTCTVSGFSLTSNAVIWVRQAPGKAPEWVALIDVDGDAAYDPALKSRLSITRDTSKSQVSLSLRSVTTEDTAVYYCARDYGSWGYVSDIDYWGPGLLVTVSSEGKSSGASGESKVDDRVVRTQPSSVSGSLGQRVSITCSGSYITGSSVGWFQQVPGSGLKTVIYDNNDRPSGVPDRFSGSKSGDTATLTISSLQAEDEADYYCASYDTSNIGLFGSGTRLTVLG
notes: scAb (scFv-HuCk-His)
Consider B8, for which the LoD in assay [3] amounted to 3.33 ng/mL; in assay [4], 6 ng/mL.

B9: S1G10 scAb (scFv)
scFv: QVQLQESGPSLVKPSQTLSLTCTVSGFSLTSNSVGWVRQAPGKAPEWVAGIDTDGEEGYNPALNSRLSITRDTSKSQVSLSLSSVTSEDTAVYYCGRSYRADGLAYGYVQAIDYWGPGLLVTVSSEGKSSGASGESKVDDQAVLTQPSSMSGSLGQRVSITCSGSFIGISSVGWFQQLPGSGLRTIIVASDGRPSGVPDRFSMSKSGNTATLTISSLQAEDEADYFCGSSDRTQYTGVFGSGTRLTVLG
notes: scAb (scFv-HuCk-His)
Take B9: the figures for the LoD in assay [3] and in assay [4] were 0.12 ng/mL and 2 ng/mL, respectively.

B10: CA9 scAb (scFv)
scFv: QVQLQESGPSLVKPSQTLSLTCTVSGFSLTSNSVGWVRQAPGKAPEWVAGIDTDGEEGYNPALNSRLSITRDTSKSQVSLSLSSVTSEDTAVYYCGRSYRSDGLAYGYVQAIDYWGPGLLVTVSSEGKSSGASGESKVDDQAVLTQPASVSGSLGQRVSITCSGSFIGISSVGWFQQLPGSGLRTIIVASDGRPSGVPDRFSMSKSGNTATLTISSLQAEDEADYFCGSSDRTQYTGVFGSGTRLTVLG
notes: scAb (scFv-HuCk-His)
Regarding B10, the binding result in assay [7] was “binds”.

B11: S1G2 scAb (scFv)
scFv: QVQLQESGPSLVKPSQTLSLTCTVSGFSLTSNSVGWVRQAPGKAPEWVAGIDTDGEEGYNPALNSRLSITRDTSKSQVSLSLSSVTSEDTAVYYCGRSYRADGLAYGYVQAIDYWGPGLLVTVSSEGKSSGASGESKVDDQAVVTQPSSVSGSLGQRVSITCSGSFIGISSVGWFQQLPGSGLRTIIVASDGRPSGVPDRFSMSKSGNTATLTISSLQAEDEADYFCGSSDRTPYTGVFGSGTRLTVLG
notes: scAb (scFv-HuCk-His)
In turn, B11 yielded a LoD in assay [3] of 0.12 ng/mL.

B12: 412G11 (scFv)
scAb: QVRLQESGPSLVKPSQTLSLTCTVSGFSLTSYALGWVRQAPGRAPEWIGNIWRGGRIEYNPALKSRLSITRDTSKSQVSLSLSSVTTEDTAVYYCSRSGGDWGPGLLVTVSSEGKSSGASGESKVDDQAVLTQPSSVSGSLGQRVSITCSGSSSNVGYGNYVGWYQQVPGSAPKLLIYGATSRASGVPDRFSGSRSENTATLTISSLQAEDEADYYCASYDRSESVVFGSGTRLTVLG
Turning to B12, the “EC50 (read off the curve)” value in assay [8] was ~6 µg/mL.
